Test results as given in publication PMC12141716, “An archaeal nucleoid-associated protein binds an essential motif in DNA replication origins” (Nature Communications, 2025).
Blank lines part the entries; values can stand above or below the molecule they belong to.

How the values were obtained:
[1] = target: UBP (ucm-binding protein), recombinant wild type (Sulfolobus islandicus REY15A) (UniProt F0NFD3); test: crystal structure; DNA-free UBP, two crystal forms (C2221 and twinned P21 with four dimers in the asymmetric unit); sodium acetate pH 4.8-5.2, PEG6000, 20 °C
UBP [2] = target: T1, UBP (Sulfolobus islandicus REY15A, UniProt F0NFD3 1-111); test: EMSA; 370 nM UBP; EMSA: 50 mM K-acetate, 20 mM Tris-acetate, 10 mM Mg-acetate, 1 mM DTT, pH 7.9, 5-10% glycerol, 70 mM NaCl, 800 ng salmon sperm DNA per 10 ul, room temperature 10 min; footprinting same buffer, 4% glycerol, 8000 ng salmon sperm DNA; pull-down 25 mM HEPES pH 7.5, 150 mM NaCl, 10 mM MgCl, 100 uM ZnCl, 10 mM DTT, 48 C; conditions: protein: recombinant; tags: MBP tag removed by Factor Xa; 3 extra vector residues at N-terminus; chain copies: 2; label: 5'-32P; blunt
T1 sequence: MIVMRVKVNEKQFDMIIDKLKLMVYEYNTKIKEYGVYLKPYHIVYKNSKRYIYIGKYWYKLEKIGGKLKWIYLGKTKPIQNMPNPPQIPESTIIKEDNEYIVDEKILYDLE

MCM-NT = target: T2, MCM-NT (Sulfolobus islandicus REY15A, UniProt F0NF15 1-266); test: EMSA; without UBP; EMSA: 50 mM K-acetate, 20 mM Tris-acetate, 10 mM Mg-acetate, 1 mM DTT, pH 7.9, 5-10% glycerol, 70 mM NaCl, 800 ng salmon sperm DNA per 10 ul, room temperature 10 min; footprinting same buffer, 4% glycerol, 8000 ng salmon sperm DNA; pull-down 25 mM HEPES pH 7.5, 150 mM NaCl, 10 mM MgCl, 100 uM ZnCl, 10 mM DTT, 48 C; conditions: protein: recombinant; tags: C-terminal 6xHis; chain copies: 6; label: 5'-32P; blunt
T2 sequence: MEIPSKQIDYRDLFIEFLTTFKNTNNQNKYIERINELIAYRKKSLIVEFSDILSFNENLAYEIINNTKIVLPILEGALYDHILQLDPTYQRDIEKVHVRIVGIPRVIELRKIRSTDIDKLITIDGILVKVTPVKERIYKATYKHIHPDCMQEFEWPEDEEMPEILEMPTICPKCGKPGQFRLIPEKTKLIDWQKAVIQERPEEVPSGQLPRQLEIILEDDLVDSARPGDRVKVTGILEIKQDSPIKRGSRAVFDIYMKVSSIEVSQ

MCM = target: T3, MCM (UniProt F0NF15 1-686); test: as above; conditions: protein: recombinant; chain copies: 6; label: 5'-32P; blunt
T3 sequence: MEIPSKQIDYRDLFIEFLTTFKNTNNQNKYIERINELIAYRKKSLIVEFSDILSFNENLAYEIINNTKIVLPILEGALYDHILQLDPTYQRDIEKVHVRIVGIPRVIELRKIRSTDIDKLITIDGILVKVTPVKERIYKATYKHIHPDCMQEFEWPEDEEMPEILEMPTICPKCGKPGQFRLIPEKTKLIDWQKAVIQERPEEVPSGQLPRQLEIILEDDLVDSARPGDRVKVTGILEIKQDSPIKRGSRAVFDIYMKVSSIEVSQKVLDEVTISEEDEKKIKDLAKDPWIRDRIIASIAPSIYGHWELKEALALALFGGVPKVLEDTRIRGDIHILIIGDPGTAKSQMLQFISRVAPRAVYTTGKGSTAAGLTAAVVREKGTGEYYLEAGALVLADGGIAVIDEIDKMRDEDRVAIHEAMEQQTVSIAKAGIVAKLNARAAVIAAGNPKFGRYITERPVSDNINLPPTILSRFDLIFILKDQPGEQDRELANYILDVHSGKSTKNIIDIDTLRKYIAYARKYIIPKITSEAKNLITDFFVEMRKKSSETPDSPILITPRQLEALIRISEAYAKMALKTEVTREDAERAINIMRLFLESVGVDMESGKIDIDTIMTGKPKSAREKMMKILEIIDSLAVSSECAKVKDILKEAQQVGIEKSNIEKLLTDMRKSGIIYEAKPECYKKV

UBP;MCM-NT = target: T4, UBP;MCM-NT (Sulfolobus islandicus REY15A;Sulfolobus …, UniProt F0NFD3;F0NF15 1-111;1-266, |); test: EMSA; 370 nM UBP; preferred over naked DNA; EMSA: 50 mM K-acetate, 20 mM Tris-acetate, 10 mM Mg-acetate, 1 mM DTT, pH 7.9, 5-10% glycerol, 70 mM NaCl, 800 ng salmon sperm DNA per 10 ul, room temperature 10 min; footprinting same buffer, 4% glycerol, 8000 ng salmon sperm DNA; pull-down 25 mM HEPES pH 7.5, 150 mM NaCl, 10 mM MgCl, 100 uM ZnCl, 10 mM DTT, 48 C; conditions: protein: recombinant;recombinant; tags: MBP tag removed by Factor Xa; 3 extra vector residues at N-terminus;C-terminal 6xHis; label: 5'-32P; blunt
T4 sequence 1: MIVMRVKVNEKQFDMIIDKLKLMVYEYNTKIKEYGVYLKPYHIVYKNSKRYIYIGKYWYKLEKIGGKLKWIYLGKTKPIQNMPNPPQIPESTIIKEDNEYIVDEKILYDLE
T4 sequence 2: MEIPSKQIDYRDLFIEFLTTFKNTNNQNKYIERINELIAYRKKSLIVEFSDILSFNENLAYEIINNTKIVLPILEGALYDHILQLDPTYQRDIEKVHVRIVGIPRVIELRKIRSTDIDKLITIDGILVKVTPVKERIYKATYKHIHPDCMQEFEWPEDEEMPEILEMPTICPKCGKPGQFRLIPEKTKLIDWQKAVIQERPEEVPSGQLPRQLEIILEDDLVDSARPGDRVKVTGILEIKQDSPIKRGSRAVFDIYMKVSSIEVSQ

UBP;MCM = target: T5, UBP;MCM (Sulfolobus islandicus REY15A;Sulfolobus …, UniProt F0NFD3;F0NF15 1-111;1-686, |); test: as above; conditions: protein: recombinant;recombinant; tags: MBP tag removed by Factor Xa; 3 extra vector residues at N-terminus;; label: 5'-32P; blunt
T5 sequence 1: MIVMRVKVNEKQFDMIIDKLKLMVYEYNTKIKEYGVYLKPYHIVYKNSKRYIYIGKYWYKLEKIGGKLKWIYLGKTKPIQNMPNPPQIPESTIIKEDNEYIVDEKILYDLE
T5 sequence 2: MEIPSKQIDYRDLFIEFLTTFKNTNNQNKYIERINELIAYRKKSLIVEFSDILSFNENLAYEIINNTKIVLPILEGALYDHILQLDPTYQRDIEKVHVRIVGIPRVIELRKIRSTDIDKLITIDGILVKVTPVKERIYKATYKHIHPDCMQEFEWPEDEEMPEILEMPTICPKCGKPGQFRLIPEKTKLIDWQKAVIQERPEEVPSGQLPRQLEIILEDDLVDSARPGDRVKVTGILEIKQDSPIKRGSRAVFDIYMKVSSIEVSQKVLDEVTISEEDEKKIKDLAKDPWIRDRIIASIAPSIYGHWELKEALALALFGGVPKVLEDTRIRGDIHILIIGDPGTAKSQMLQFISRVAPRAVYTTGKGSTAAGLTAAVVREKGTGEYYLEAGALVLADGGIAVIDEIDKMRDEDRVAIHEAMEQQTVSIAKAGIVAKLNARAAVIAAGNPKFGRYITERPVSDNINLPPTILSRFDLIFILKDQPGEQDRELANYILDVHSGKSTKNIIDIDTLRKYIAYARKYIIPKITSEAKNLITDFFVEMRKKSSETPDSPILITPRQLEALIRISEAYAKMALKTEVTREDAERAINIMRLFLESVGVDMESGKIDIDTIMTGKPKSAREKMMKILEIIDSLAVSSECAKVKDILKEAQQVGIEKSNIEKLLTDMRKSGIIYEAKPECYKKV

UBP [3] = target: T1, UBP; test: EMSA; up to 740 nM UBP; EMSA: 50 mM K-acetate, 20 mM Tris-acetate, 10 mM Mg-acetate, 1 mM DTT, pH 7.9, 5-10% glycerol, 70 mM NaCl, 800 ng salmon sperm DNA per 10 ul, room temperature 10 min; footprinting same buffer, 4% glycerol, 8000 ng salmon sperm DNA; pull-down 25 mM HEPES pH 7.5, 150 mM NaCl, 10 mM MgCl, 100 uM ZnCl, 10 mM DTT, 48 C; conditions: protein: recombinant; tags: MBP tag removed by Factor Xa; 3 extra vector residues at N-terminus; chain copies: 2; label: 5'-32P
UBP [4] = target: T1, UBP; test: EMSA; EMSA: 50 mM K-acetate, 20 mM Tris-acetate, 10 mM Mg-acetate, 1 mM DTT, pH 7.9, 5-10% glycerol, 70 mM NaCl, 800 ng salmon sperm DNA per 10 ul, room temperature 10 min; footprinting same buffer, 4% glycerol, 8000 ng salmon sperm DNA; pull-down 25 mM HEPES pH 7.5, 150 mM NaCl, 10 mM MgCl, 100 uM ZnCl, 10 mM DTT, 48 C; conditions: protein: recombinant; tags: MBP tag removed by Factor Xa; 3 extra vector residues at N-terminus; chain copies: 2; label: 5'-32P; blunt

- stoichiometry N [1]: 2
Molecule: UBP (ucm-binding protein), recombinant wild type (from UniProt F0NFD3 1-111)

B1: oriC1 140 bp (P21/P22) (dsDNA)
DNA 1: TATTTTGAGCAACATTTTGTTATAATTAGATAACCATTATACAAAAGAATTGTATAAGAATGAAATCAAAGCTTATTTTATGTCACTAGAATCTCCAAATGAAATACTGGGGTAGGCCTTGTTTATGACACAACTTACAT
DNA 2: ATGTAAGTTGTGTCATAAACAAGGCCTACCCCAGTATTTCATTTGGAGATTCTAGTGACATAAAATAAGCTTTGATTTCATTCTTATACAATTCTTTTGTATAATGGTTATCTAATTATAACAAAATGTTGCTCAAAATA
- binding result (UBP [2]): binds
- binding result (MCM-NT): binds
- binding result (MCM): binds
- binding result (UBP;MCM-NT): binds
- binding result (UBP;MCM): binds

B2: ucm 20 nt top strand (P17) (ssDNA)
DNA: AACCATTATACAAAAGAATT
- binding result (UBP [3]): no binding

B3: scr 50 bp (P7/P8) (dsDNA)
DNA 1: ATAATATTTGAAATTAAATGCTTAGTGAATATACGTACAGAATAAAAATT
DNA 2: AATTTTTATTCTGTACGTATATTCACTAAGCATTTAATTTCAAATATTAT
- binding result (UBP [4]): no binding
